# Measured values reported in US20230002480A1.
# How the values were obtained:
# Experiment in all cases: cell-based or functional assay
# [1] = biological target: HIV-1 Env of pseudovirus 6535.3 (HIV-1)
# [2] = biological target: HIV-1 Env of pseudovirus 6041.v3.c23 (HIV-1)
# [3] = biological target: HIV-1 Env of pseudovirus CNE58 (HIV-1)
# [4] = biological target: HIV-1 Env of pseudovirus Q769.d22 (HIV-1)
# [5] = biological target: HIV-1 Env of pseudovirus A07412M1.vrc12 (HIV-1)
# [6] = biological target: HIV-1 Env of pseudovirus C2101.c01 (HIV-1)
# [7] = biological target: HIV-1 Env of pseudovirus ZM247v1(Rev-) (HIV-1)
# [8] = biological target: HIV-1 Env of pseudovirus Q259.d2.17 (HIV-1)
# [9] = biological target: HIV-1 Env of pseudovirus ZM109F.PB4 (HIV-1)
# [10] = biological target: HIV-1 Env of pseudovirus Ce1086_B2 (HIV-1)
# [11] = biological target: HIV-1 Env of pseudovirus P1981_C5_3 (HIV-1)
# [12] = biological target: HIV-1 Env of pseudovirus 231966.c02 (HIV-1)
# [13] = biological target: HIV-1 Env of pseudovirus CNE17 (HIV-1)
# [14] = biological target: HIV-1 Env of pseudovirus X2088_c9 (HIV-1)
# [15] = biological target: HIV-1 Env of pseudovirus Du156.12 (HIV-1)
# [16] = biological target: HIV-1 Env of pseudovirus HIV-16845-2.22 (HIV-1)
# [17] = biological target: HIV-1 Env of pseudovirus 263-8 (HIV-1)
# [18] = biological target: HIV-1 Env of pseudovirus 1054_07_TC4_1499 (HIV-1)
# [19] = biological target: HIV-1 Env of pseudovirus ZM249M.PL1 (HIV-1)
# [20] = biological target: HIV-1 Env of pseudovirus Ce2010_F5 (HIV-1)
# [21] = biological target: HIV-1 Env of pseudovirus 211-9 (HIV-1)
# [22] = biological target: HIV-1 Env of pseudovirus Ce0682_E4 (HIV-1)
# [23] = biological target: HIV-1 Env of pseudovirus 3301.v1.c24 (HIV-1)
# [24] = biological target: HIV-1 Env of pseudovirus Ce2060_G9 (HIV-1)
# [25] = biological target: HIV-1 Env of pseudovirus CNE19 (HIV-1)
# [26] = biological target: HIV-1 Env of pseudovirus WEAU_d15_410_787 (HIV-1)
# [27] = biological target: HIV-1 Env of pseudovirus 620345.c01 (HIV-1)
# [28] = biological target: HIV-1 Env of pseudovirus 928-28 (HIV-1)
# [29] = biological target: HIV-1 Env of pseudovirus QH0692.42 (HIV-1)
# [30] = biological target: HIV-1 Env of pseudovirus PVO.4 (HIV-1)
# [31] = biological target: HIV-1 Env of pseudovirus Ce1172_H1 (HIV-1)
# [32] = biological target: HIV-1 Env of pseudovirus Q461.e2 (HIV-1)
# [33] = biological target: HIV-1 Env of pseudovirus CNE8 (HIV-1)
# [34] = biological target: HIV-1 Env of pseudovirus BJOX028000.10.3 (HIV-1)
# [35] = biological target: HIV-1 Env of pseudovirus Q842.d12 (HIV-1)
# [36] = biological target: HIV-1 Env of pseudovirus MS208.A1 (HIV-1)
substance,measurement,setting,value
N49P6 (antibody),IC50,[1],0.417 µg/mL
same,IC80,[1],1.34 µg/mL
same,MPI,[1],100
same,IC50,[2],5.53 µg/mL
same,IC80,[2],43.2 µg/mL
same,MPI,[2],88
same,IC50,[3],0.036 µg/mL
same,IC80,[3],0.1 µg/mL
same,MPI,[3],100
same,IC50,[4],0.072 µg/mL
same,IC80,[4],0.318 µg/mL
same,MPI,[4],100
same,IC50,[5],0.229 µg/mL
same,IC80,[5],0.786 µg/mL
same,MPI,[5],100
same,IC50,[6],0.14 µg/mL
same,IC80,[6],0.597 µg/mL
same,MPI,[6],100
same,IC50,[7],0.063 µg/mL
same,IC80,[7],0.17 µg/mL
same,MPI,[7],100
same,IC50,[8],24.4 µg/mL
same,IC80,[8],> 50 µg/mL
same,MPI,[8],75
same,IC50,[9],0.084 µg/mL
same,IC80,[9],0.29 µg/mL
same,MPI,[9],99
same,IC50,[10],0.581 µg/mL
same,IC80,[10],4.09 µg/mL
same,MPI,[10],98
same,IC50,[11],0.31 µg/mL
same,IC80,[11],0.708 µg/mL
same,MPI,[11],100
same,IC50,[12],0.339 µg/mL
same,IC80,[12],1.62 µg/mL
same,MPI,[12],100
same,IC50,[13],0.34 µg/mL
same,IC80,[13],2.1 µg/mL
same,MPI,[13],100
same,IC50,[14],27 µg/mL
same,IC80,[14],> 50 µg/mL
same,MPI,[14],65
same,IC50,[15],0.082 µg/mL
same,IC80,[15],0.28 µg/mL
same,MPI,[15],100
same,IC50,[16],0.692 µg/mL
same,IC80,[16],3.75 µg/mL
same,MPI,[16],100
same,IC50,[17],0.116 µg/mL
same,IC80,[17],0.438 µg/mL
same,MPI,[17],100
same,IC50,[18],0.624 µg/mL
same,IC80,[18],2.85 µg/mL
same,MPI,[18],100
same,IC50,[19],0.112 µg/mL
same,IC80,[19],0.376 µg/mL
same,MPI,[19],100
same,IC50,[20],0.124 µg/mL
same,IC80,[20],0.749 µg/mL
same,MPI,[20],100
same,IC50,[21],8.49 µg/mL
same,IC80,[21],27.7 µg/mL
same,MPI,[21],93
same,IC50,[22],0.095 µg/mL
same,IC80,[22],0.315 µg/mL
same,MPI,[22],100
same,IC50,[23],0.054 µg/mL
same,IC80,[23],0.149 µg/mL
same,MPI,[23],100
same,IC50,[24],0.888 µg/mL
same,IC80,[24],4.81 µg/mL
same,MPI,[24],100
same,IC50,[25],0.044 µg/mL
same,IC80,[25],0.156 µg/mL
same,MPI,[25],100
same,IC50,[26],0.07 µg/mL
same,IC80,[26],0.188 µg/mL
same,MPI,[26],100
same,IC50,[27],22.9 µg/mL
same,IC80,[27],> 50 µg/mL
same,MPI,[27],70
same,IC50,[28],1.24 µg/mL
same,IC80,[28],5.6 µg/mL
same,MPI,[28],99
same,IC50,[29],0.652 µg/mL
same,IC80,[29],2.28 µg/mL
same,MPI,[29],100
same,IC50,[30],0.128 µg/mL
same,IC80,[30],0.357 µg/mL
same,MPI,[30],100
same,IC50,[31],14.4 µg/mL
same,IC80,[31],47.3 µg/mL
same,MPI,[31],82
same,IC50,[32],0.173 µg/mL
same,IC80,[32],0.622 µg/mL
same,MPI,[32],100
same,IC50,[33],0.072 µg/mL
same,IC80,[33],0.245 µg/mL
same,MPI,[33],100
same,IC50,[34],6.68 µg/mL
same,IC80,[34],> 50 µg/mL
same,MPI,[34],77
same,IC50,[35],0.034 µg/mL
same,IC80,[35],0.091 µg/mL
same,MPI,[35],100
same,IC50,[36],0.11 µg/mL
same,IC80,[36],0.436 µg/mL
same,MPI,[36],100
N49P11 (antibody),IC50,[2],4.42 µg/mL
same,IC80,[2],17.6 µg/mL
same,MPI,[2],100
same,IC50,[5],2.52 µg/mL
same,IC80,[5],12.9 µg/mL
same,MPI,[5],100
same,IC50,[6],0.084 µg/mL
same,IC80,[6],0.505 µg/mL
same,MPI,[6],100
same,IC50,[11],5.29 µg/mL
same,IC80,[11],16.5 µg/mL
same,MPI,[11],100
same,IC50,[12],4.31 µg/mL
same,IC80,[12],16 µg/mL
same,MPI,[12],100
same,IC50,[14],6.82 µg/mL
same,IC80,[14],22 µg/mL
same,MPI,[14],100
same,IC50,[17],0.064 µg/mL
same,IC80,[17],0.259 µg/mL
same,MPI,[17],100
same,IC50,[21],5.67 µg/mL
same,IC80,[21],18.2 µg/mL
same,MPI,[21],100
same,IC50,[23],1.98 µg/mL
same,IC80,[23],15.7 µg/mL
same,MPI,[23],100
same,IC50,[27],11.7 µg/mL
same,IC80,[27],27.9 µg/mL
same,MPI,[27],100
same,IC50,[28],5.46 µg/mL
same,IC80,[28],25 µg/mL
same,MPI,[28],100
same,IC50,[33],0.165 µg/mL
same,IC80,[33],1.24 µg/mL
same,MPI,[33],100
same,IC50,[34],5.33 µg/mL
same,IC80,[34],46.7 µg/mL
same,MPI,[34],100
